How the values were obtained:
human IgG1 (human) = assay: SPR, Biacore X-100, human IgG1 on the chip, single cycle kinetics
[1] = target: human serum-derived IgG polyclonal antibody (WAKO) (human); assay: affinity column breakthrough, scFv immobilized on HiTrap NHS-activated HP
[2] = target: human serum-derived IgG polyclonal antibody (WAKO) (human); assay: affinity column breakthrough, scFv immobilized on HiTrap NHS-activated HP (33.6 mg)
[3] = target: human serum-derived IgG polyclonal antibody (WAKO) (human); assay: affinity column breakthrough, scFv immobilized on HiTrap NHS-activated HP; average of Reference Examples 1-1 and 1-2

B1: R3-26 repCK+ori6K+VH4KVL4K (scFv)
scFv: QEQLVESGGGLVKPGGTLTLTCTVSGIDLSSYAMSWVRQVPGKGLEWIGIIGSGGGTAYANWARGRFTISRTSSTTVDLRMTSLTTEDTATYFCATDYGIYGYAYGHLWGPGTLVTVTKKKKKGGGGSGGGGSGGGGSELVMTQTASPVSAKVGGTVTINCQASQSISTALAWYQQKPGQPPRLLIYDASTLASGVSSRFSGSGSGTEFTLTISDLESADAATYYCQTYFGSDTDNAFGEGTEVEIKKKKKGSAAALEHHHHHH
- Kd (human IgG1 (human)): 0.053 nM
- koff (human IgG1 (human)): 1.6e-05 s⁻¹
- kon (human IgG1 (human)): 300000 M⁻¹ s⁻¹

B2: R3-26 repCK+K (scFv)
scFv: QEQLVESGGGLVTPGGTLTLTCTVSGIDLSSYAMSWVRQVPGEGLEWIGIIGSGGGTAYANWARGRFTISRTSSTTVDLRMTSLTTEDTATYFCATDYGIYGYAYGHLWGPGTLVTVTSGGGGSGGGGSGGGGSELVMTQTASPVSAAVGGTVTINCQASQSISTALAWYQQRPGQPPRLLIYDASTLASGVSSRFSGSGSGTEFTLTISDLESADAATYYCQTYFGSDTDNAFGEGTEVEITGSAAAGGGGSKIEHHHHHH
- Kd (human IgG1 (human)): 1.6 nM
- koff (human IgG1 (human)): 9.1e-05 s⁻¹
- kon (human IgG1 (human)): 56000 M⁻¹ s⁻¹
- [10% DBC (mg/mL) at flow rate of 1.0 mL/min]/[amount of protein immobilized on column (mg)] [1]: 0.625 (mg/mL)/mg

B3: R3-26 repCK+ori6K (scFv)
scFv: QEQLVESGGGLVKPGGTLTLTCTVSGIDLSSYAMSWVRQVPGKGLEWIGIIGSGGGTAYANWARGRFTISRTSSTTVDLRMTSLTTEDTATYFCATDYGIYGYAYGHLWGPGTLVTVTKGGGGSGGGGSGGGGSELVMTQTASPVSAKVGGTVTINCQASQSISTALAWYQQKPGQPPRLLIYDASTLASGVSSRFSGSGSGTEFTLTISDLESADAATYYCQTYFGSDTDNAFGEGTEVEIKGSAAALEHHHHHH
- Kd (human IgG1 (human)): 0.79 nM
- koff (human IgG1 (human)): 6.2e-05 s⁻¹
- kon (human IgG1 (human)): 79000 M⁻¹ s⁻¹
- [10% DBC (mg/mL) at flow rate of 1.0 mL/min]/[amount of protein immobilized on column (mg)] [2]: 0.777 (mg/mL)/mg

B4: single-chain antibody R3-26 (scFv)
scFv: QEQLVESGGGLVKPGGTLTLTCTVSGIDLSSYAMSWVRQVPGKGLEWIGIIGSGGGTAYANWAKGRFTISKTSSTTVDLKMTSLTTEDTATYFCATDYGIYGYAYGHLWGPGTLVTVTSGGGGSGGGGSGGGGSELVMTQTASPVSAAVGGTVTIKCQASQSISTALAWYQQRPGQPPKLLIYDASTLASGVSSRFKGSGSGTEFTLTISDLECADAATYYCQTYFGSDTDNAFGEGTEVEITGSAAALEHHHHHH
- Kd (human IgG1 (human)): 2.1 nM
- koff (human IgG1 (human)): 4.3e-05 s⁻¹
- kon (human IgG1 (human)): 21000 M⁻¹ s⁻¹
- [10% DBC (mg/mL) at flow rate of 1.0 mL/min]/[amount of protein immobilized on column (mg)] [3]: 0.736 (mg/mL)/mg
